Measured values: the supplement of paper PMC10065799, “High-throughput profiling of sequence recognition by tyrosine kinases and SH2 domains using bacterial peptide display” (eLife, 2023)

Key:
Fes = Fes (UniProt P07332); assay: phosphorylation enrichment, bacterial display (enrichment ratio); higher = better substrate or ligand; peptides without Tyr show the background
FGFR1 = FGFR1 (UniProt P11362); assay: as above
c-Src = assay: as above
Fer (mouse) = assay: as above
Jak2 = Jak2 (UniProt O60674); assay: as above
Fyn = Fyn (UniProt P06241); assay: as above
Chain of Fyn (P06241 whole entry, looked up): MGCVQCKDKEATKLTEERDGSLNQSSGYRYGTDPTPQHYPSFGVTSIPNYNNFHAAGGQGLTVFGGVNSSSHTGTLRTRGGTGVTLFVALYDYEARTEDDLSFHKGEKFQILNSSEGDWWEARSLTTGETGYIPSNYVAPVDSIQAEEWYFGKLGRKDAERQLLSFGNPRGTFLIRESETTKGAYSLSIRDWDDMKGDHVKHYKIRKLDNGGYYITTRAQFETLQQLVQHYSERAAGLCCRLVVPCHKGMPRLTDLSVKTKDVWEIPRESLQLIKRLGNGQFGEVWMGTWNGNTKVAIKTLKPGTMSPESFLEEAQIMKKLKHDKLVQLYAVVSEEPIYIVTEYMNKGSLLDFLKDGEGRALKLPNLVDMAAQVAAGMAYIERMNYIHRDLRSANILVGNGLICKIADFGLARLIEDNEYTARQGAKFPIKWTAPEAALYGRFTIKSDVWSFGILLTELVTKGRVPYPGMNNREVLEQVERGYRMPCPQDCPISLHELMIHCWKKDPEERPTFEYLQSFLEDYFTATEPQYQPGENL

EPHB1 = EPHB1 (UniProt P54762); assay: as above
FGFR3 = FGFR3 (UniProt P22607); assay: as above
Chain of FGFR3 (P22607 whole entry, looked up): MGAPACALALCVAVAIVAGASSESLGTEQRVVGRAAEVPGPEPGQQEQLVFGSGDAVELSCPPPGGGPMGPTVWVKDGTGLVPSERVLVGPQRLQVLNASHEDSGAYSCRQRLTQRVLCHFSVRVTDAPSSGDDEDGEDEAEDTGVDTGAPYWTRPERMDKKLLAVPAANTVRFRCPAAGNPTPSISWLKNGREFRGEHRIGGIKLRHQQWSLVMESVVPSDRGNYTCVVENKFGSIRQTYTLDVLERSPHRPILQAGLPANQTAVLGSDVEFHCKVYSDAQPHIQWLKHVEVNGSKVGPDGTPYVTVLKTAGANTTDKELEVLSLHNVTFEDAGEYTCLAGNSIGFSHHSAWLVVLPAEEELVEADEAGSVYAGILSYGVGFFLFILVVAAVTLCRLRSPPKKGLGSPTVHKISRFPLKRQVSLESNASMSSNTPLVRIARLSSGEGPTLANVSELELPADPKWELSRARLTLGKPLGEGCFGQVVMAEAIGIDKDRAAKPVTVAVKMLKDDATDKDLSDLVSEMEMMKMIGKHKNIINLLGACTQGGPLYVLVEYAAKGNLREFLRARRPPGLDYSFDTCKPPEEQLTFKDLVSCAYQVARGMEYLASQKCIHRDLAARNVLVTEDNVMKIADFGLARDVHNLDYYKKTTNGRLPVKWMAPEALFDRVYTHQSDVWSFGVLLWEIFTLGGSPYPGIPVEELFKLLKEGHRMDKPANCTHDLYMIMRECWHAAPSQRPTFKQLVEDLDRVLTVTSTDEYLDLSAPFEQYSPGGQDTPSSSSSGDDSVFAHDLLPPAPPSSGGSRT

Hck = Hck (UniProt P08631); assay: as above
Chain of Hck (P08631 whole entry, looked up): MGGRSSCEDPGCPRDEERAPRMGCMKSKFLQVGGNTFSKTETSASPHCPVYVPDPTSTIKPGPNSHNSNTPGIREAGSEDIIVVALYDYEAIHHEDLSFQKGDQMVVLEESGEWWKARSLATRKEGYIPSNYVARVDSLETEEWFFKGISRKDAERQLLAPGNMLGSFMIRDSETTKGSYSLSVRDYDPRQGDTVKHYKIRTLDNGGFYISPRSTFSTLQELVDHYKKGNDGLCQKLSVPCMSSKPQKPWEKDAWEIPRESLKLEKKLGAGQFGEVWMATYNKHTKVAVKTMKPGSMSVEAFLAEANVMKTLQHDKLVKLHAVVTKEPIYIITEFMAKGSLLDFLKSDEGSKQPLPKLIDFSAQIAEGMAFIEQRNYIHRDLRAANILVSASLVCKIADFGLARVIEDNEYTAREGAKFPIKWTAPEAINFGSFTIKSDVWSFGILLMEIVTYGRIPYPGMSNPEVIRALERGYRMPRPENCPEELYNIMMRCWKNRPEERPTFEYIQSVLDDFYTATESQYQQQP

AncSZ = assay: as above
c-Abl (mouse) = assay: as above
EPHB2 = EPHB2 (UniProt P29323); assay: as above
Chain of EPHB2 (P29323 whole entry, looked up): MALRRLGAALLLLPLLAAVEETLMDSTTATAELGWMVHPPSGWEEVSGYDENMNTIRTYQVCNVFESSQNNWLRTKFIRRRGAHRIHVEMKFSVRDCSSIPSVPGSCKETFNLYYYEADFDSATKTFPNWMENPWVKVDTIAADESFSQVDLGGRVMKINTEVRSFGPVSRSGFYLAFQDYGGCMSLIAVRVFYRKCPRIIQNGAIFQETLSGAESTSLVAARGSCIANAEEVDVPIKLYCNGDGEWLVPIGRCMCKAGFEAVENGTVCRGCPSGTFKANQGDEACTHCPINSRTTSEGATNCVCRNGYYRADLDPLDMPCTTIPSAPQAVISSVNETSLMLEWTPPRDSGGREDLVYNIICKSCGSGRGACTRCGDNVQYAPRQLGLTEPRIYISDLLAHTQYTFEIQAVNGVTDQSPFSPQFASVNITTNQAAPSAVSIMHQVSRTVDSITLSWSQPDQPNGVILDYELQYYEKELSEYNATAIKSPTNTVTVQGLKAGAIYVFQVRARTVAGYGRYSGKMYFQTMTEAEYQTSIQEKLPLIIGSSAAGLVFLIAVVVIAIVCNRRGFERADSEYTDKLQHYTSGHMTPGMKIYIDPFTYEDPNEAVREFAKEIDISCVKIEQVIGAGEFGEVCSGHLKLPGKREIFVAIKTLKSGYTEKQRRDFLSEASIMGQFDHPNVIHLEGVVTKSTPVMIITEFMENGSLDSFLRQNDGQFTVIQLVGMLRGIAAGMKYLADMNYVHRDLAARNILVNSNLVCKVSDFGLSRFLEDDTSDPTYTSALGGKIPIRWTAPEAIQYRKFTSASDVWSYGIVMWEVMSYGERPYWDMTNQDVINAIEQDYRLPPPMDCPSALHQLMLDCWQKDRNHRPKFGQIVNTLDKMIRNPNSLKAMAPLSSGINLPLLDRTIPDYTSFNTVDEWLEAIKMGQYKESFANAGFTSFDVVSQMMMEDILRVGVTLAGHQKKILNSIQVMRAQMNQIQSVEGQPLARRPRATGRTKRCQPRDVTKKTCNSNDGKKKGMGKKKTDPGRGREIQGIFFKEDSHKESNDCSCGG

MERTK = MERTK (UniProt Q12866); assay: as above
SHP2-C SH2 = assay: SH2 binding enrichment of the phosphorylated peptide, bacterial display (enrichment ratio); higher = better substrate or ligand; peptides without Tyr show the background
c-Src SH2 = assay: as above
Grb2 SH2 = Grb2 SH2 (UniProt P62993); assay: as above
Chain of Grb2 SH2 (P62993 whole entry, looked up, the tested form may be a part): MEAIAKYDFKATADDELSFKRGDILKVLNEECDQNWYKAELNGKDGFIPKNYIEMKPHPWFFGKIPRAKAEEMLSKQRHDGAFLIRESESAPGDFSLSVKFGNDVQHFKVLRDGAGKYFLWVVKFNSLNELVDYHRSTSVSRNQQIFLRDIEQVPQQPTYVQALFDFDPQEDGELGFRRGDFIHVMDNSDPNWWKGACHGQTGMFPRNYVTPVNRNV
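For SH2 binding enrichment of the phosphorylated peptide, bacterial display in this document: peptide library displayed on the E. coli surface as eCPX fusions, selected cells deep-sequenced, score is each peptide's frequency after selection divided by its frequency in the input.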
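For phosphorylation enrichment, bacterial display in this document: 11-residue human phosphosite peptides and single-mutation variants displayed on the E. coli surface, counted by deep sequencing, each peptide's frequency after selection divided by its frequency in the unselected input library; frequency after pTyr selection over input frequency; kinase dosed for 20-30% of maximal phosphorylation in three min.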

Chain of Fes (P07332 whole entry, looked up): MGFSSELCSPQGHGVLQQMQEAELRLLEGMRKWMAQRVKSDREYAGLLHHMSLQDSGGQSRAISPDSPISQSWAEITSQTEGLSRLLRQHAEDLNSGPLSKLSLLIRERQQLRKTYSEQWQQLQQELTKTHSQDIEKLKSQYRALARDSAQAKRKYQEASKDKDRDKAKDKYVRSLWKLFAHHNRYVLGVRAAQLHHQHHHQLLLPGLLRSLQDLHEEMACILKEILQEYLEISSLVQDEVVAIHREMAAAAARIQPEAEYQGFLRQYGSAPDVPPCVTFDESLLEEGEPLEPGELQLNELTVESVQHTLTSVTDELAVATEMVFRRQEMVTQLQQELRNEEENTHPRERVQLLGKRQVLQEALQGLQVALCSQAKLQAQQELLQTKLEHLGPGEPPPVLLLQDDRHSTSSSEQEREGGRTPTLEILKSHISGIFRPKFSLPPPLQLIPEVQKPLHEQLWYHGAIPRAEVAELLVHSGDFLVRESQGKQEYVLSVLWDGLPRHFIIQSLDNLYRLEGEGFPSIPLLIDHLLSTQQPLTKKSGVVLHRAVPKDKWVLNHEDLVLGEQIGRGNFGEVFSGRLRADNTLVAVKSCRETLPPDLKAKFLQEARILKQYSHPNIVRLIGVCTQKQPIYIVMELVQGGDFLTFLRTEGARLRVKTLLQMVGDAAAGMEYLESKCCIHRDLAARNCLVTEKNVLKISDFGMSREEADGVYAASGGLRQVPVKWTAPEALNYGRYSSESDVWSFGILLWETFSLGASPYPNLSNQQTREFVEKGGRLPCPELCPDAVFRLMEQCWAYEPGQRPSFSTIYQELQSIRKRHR
Chain of FGFR1 (P11362 whole entry, looked up): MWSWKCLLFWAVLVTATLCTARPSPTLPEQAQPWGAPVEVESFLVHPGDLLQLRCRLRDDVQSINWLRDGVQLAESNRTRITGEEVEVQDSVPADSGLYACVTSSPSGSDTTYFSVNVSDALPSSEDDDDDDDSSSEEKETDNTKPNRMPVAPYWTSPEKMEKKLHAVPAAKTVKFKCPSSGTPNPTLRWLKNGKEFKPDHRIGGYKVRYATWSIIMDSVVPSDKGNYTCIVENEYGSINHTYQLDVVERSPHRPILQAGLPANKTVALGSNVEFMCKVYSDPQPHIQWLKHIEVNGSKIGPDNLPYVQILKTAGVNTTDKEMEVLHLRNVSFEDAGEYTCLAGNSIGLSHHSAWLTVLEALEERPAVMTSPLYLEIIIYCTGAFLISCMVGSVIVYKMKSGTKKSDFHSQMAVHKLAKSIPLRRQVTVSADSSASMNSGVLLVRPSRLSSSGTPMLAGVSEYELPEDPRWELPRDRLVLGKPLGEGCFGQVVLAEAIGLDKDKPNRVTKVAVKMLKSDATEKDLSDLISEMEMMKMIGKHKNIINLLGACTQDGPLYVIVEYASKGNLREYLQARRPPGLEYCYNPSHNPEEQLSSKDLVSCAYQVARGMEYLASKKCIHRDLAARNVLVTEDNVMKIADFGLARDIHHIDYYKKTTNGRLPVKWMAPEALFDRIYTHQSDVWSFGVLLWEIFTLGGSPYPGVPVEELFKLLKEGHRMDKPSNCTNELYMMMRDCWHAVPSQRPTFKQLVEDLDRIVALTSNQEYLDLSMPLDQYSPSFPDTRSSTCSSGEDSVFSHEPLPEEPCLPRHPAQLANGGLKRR

Sequence	phosphorylation enrichment (Fes)	phosphorylation enrichment (FGFR1)	phosphorylation enrichment (c-Src)	phosphorylation enrichment (Fer (mouse))	phosphorylation enrichment (Jak2)	phosphorylation enrichment (Fyn)	phosphorylation enrichment (EPHB1)	phosphorylation enrichment (FGFR3)	phosphorylation enrichment (Hck)	phosphorylation enrichment (AncSZ)	phosphorylation enrichment (c-Abl (mouse))	phosphorylation enrichment (EPHB2)	phosphorylation enrichment (MERTK)	SH2 binding enrichment (SHP2-C SH2)	SH2 binding enrichment (c-Src SH2)	SH2 binding enrichment (Grb2 SH2)
AKKVFYVNETR [SHH_Y253_I255N]	0.737	0.42	0.319	0.338	0.526	0.307	0.594	0.494	0.338	0.576	0.459	0.448	0.363	0.814	0.743	4.17
VTDGKYAFKPK [GTF2E2_Y137_I133T]	0.64	0.411	0.361	0.31	0.521	0.355	0.299	0.419	0.459	0.491	0.575	0.262	0.361	0.847	0.452	0.783
FNVLQYVVPKV [EIF3A_Y382_E386K]	0.797	1.1	0.383	0.348	2.2	0.465	1.09	1.02	0.386	0.832	9.24	0.607	1.41	2.18	0.964	1.31
NSIGNYYKPWF [DHCR24_Y299]	0.774	5.3	0.69	0.52	9.63	0.568	14.5	4.33	1	1.14	14.1	15.2	8.27	2.39	1.09	1.14
QAKRKYQEASK [FES_Y156]	0.772	0.495	0.488	0.481	0.429	0.544	0.342	0.441	0.489	0.46	0.491	0.459	0.418	0.701	0.602	1.16
